Experimental data: the supplement of paper PMC12855868

B1: library; numbered along this chain (parent)
chain: MAAAGGARLLRAASAVLGGPAGRWLHHAGSRAGSSGLLRNRGPGGSAEASRSLSVSARARSSSEDKITVHFINRDGETLTTKGKVGDSLLDVVVENNLDIDGFGACEGTLACSTCHLIFEDHIYEKLDAITDEENDMLDLAYGLTDRSRLGCQICLTKSMDNMTVRVPETVADARQSIDVGKTS

Variants of: B1
Assay: scaled log2 fold change in cell abundance, elesclomol vs control (0 = silent mean, 1 = nonsense mean) (scaled log2 ratio); higher = higher viability under elesclomol (loss of FDX1 cuproptosis function)
Settings: glucose 10 mM
[1] = with ABC1 FDX1 KO, elesclomol 5 nM, 14 days
[2] = with HEK293T FDX1 KO, elesclomol 40 nM, 11 days
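Further: variant abundance is its share of total variant reads in each endpoint sample, from next-generation sequencing of the integrated ORF PCR-amplified out of genomic DNA.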

MAAAGGARLLRAASAVLGGPAGRWLHHAGSRAGSSGLLRNRGPGGSAEASRSLSVSARARSSSEDKITVHFINRDGETLTTKGKVGDSLLDVVVENNLDIDGFGACEGTLACSTCHLIFEDHIWEKLDAITDEENDMLDLAYGLTDRSRLGCQICLTKSMDNMTVRVPETVADARQSIDVGKTS [Y124W]
scaled log2 fold change [1]: -0.403 | scaled log2 fold change [2]: -0.22

MAAAGGARLLRAASAVLGGPAGRWLHHAGSRAGSSGLLRNRGPGGSAEASRSLSVSARARSSSEDKITVHFINRDGETLTTKGKVGDSLLDVVVENNLDIDGFGACEGTLACSTCHLIFEDHIYAKLDAITDEENDMLDLAYGLTDRSRLGCQICLTKSMDNMTVRVPETVADARQSIDVGKTS [E125A]
scaled log2 fold change [1]: -0.503 | scaled log2 fold change [2]: -0.173

MAAAGGARLLRAASAVLGGPAGRWLHHAGSRAGSSGLLRNRGPGGSAEASRSLSVSARARSSSEDKITVHFINRDGETLTTKGKVGDSLLDVVVENNLDIDGFGACEGTLACSTCHLIFEDHIYCKLDAITDEENDMLDLAYGLTDRSRLGCQICLTKSMDNMTVRVPETVADARQSIDVGKTS [E125C]
scaled log2 fold change [1]: -0.817 | scaled log2 fold change [2]: 0.0813

MAAAGGARLLRAASAVLGGPAGRWLHHAGSRAGSSGLLRNRGPGGSAEASRSLSVSARARSSSEDKITVHFINRDGETLTTKGKVGDSLLDVVVENNLDIDGFGACEGTLACSTCHLIFEDHIYDKLDAITDEENDMLDLAYGLTDRSRLGCQICLTKSMDNMTVRVPETVADARQSIDVGKTS [E125D]
scaled log2 fold change [1]: 0.426 | scaled log2 fold change [2]: 0.469

MAAAGGARLLRAASAVLGGPAGRWLHHAGSRAGSSGLLRNRGPGGSAEASRSLSVSARARSSSEDKITVHFINRDGETLTTKGKVGDSLLDVVVENNLDIDGFGACEGTLACSTCHLIFEDHIYFKLDAITDEENDMLDLAYGLTDRSRLGCQICLTKSMDNMTVRVPETVADARQSIDVGKTS [E125F]
scaled log2 fold change [1]: -0.241 | scaled log2 fold change [2]: 0.00284

MAAAGGARLLRAASAVLGGPAGRWLHHAGSRAGSSGLLRNRGPGGSAEASRSLSVSARARSSSEDKITVHFINRDGETLTTKGKVGDSLLDVVVENNLDIDGFGACEGTLACSTCHLIFEDHIYGKLDAITDEENDMLDLAYGLTDRSRLGCQICLTKSMDNMTVRVPETVADARQSIDVGKTS [E125G]
scaled log2 fold change [1]: -0.304 | scaled log2 fold change [2]: -0.096

MAAAGGARLLRAASAVLGGPAGRWLHHAGSRAGSSGLLRNRGPGGSAEASRSLSVSARARSSSEDKITVHFINRDGETLTTKGKVGDSLLDVVVENNLDIDGFGACEGTLACSTCHLIFEDHIYHKLDAITDEENDMLDLAYGLTDRSRLGCQICLTKSMDNMTVRVPETVADARQSIDVGKTS [E125H]
scaled log2 fold change [1]: -0.583 | scaled log2 fold change [2]: -0.234

MAAAGGARLLRAASAVLGGPAGRWLHHAGSRAGSSGLLRNRGPGGSAEASRSLSVSARARSSSEDKITVHFINRDGETLTTKGKVGDSLLDVVVENNLDIDGFGACEGTLACSTCHLIFEDHIYKKLDAITDEENDMLDLAYGLTDRSRLGCQICLTKSMDNMTVRVPETVADARQSIDVGKTS [E125K]
scaled log2 fold change [1]: 0.48 | scaled log2 fold change [2]: 0.921
